Test results reported in US10059950B2, “Compositions comprising an internalizing nucleic acid molecule, and their methods of use” (B3 BIO, INC., priority 2012, dated 2018).
In the oligonucleotide strings, read from the 5' end, every base follows the letter of its sugar. An asterisk marks phosphorothioate; unmarked linkages are phosphodiester. Other units and linkages are bracketed, terminal groups are in braces. A string of capitals states the bases alone. r = 2'-OH (RNA); f = 2'-fluoro

Columns and labels:
[1] = test system: MCF7 human breast adenocarcinoma; assay: Flow cytometric binding and internalization assay, MCF7; assay type: cell-based; conditions: MCF7, malignant
Experimental: (§1) In illustrating a screening process for internalization, from clones selected for further analysis from the selection process, a flow cytometric-based assay for binding and/or internalization was utilized. Typically, the assay was performed by incubating 200 nM of each clone with 5×10^5 target cells in 100 ul PBS containing 0.5% bovine serum albumin (BSA) in a 13 mm tube for 2 hours @ 37° C. A first portion of the cells was then treated with RNAse to remove any of the clone remaining bound to the surface of the cells, so as to allow detection and quantitation of internalized clone (i.e., measuring internalization). In parallel, a second portion of the cells was treated with PBS containing 0.5% BSA (lacking added RNase activity to enzymatically cleave […]), so as to allow detection and quantitation of clone remaining bound to the cell surface, as well as internalized clone (i.e., measuring binding and internalization). […] Additionally, fluorescence of unstained cells was measured, as a control, to quantitate any background fluorescent properties of the cells themselves as encountered in analyses by flow cytometry (“Unstained”), as opposed to fluorescent signal mediated by the RNA molecules further modified to include Alexa 647. […] The units of fluorescence in Table 5 represent mean fluorescence (“Mean”). […]

[2] = test system: human prostate cancer cell line PC-3; assay: Flow cytometric-based screening assay for internalization in PC-3 cells; assay type: cell-based
Experimental: In illustrating a screening process for internalization, from clones selected for further analysis from the selection process, a flow cytometric-based assay for binding and/or internalization was utilized. Typically, the assay was performed by incubating 200 nM of each clone with 5×10^5 target cells in 100 ul PBS containing 0.5% bovine serum albumin (BSA) in a 13 mm tube for 2 hours @ 37° C. A first portion of the cells was then treated with RNAse to remove any of the clone remaining bound to the surface of the cells, so as to allow detection and quantitation of internalized clone (i.e., measuring internalization). In parallel, a second portion of the cells was treated with PBS containing 0.5% BSA (lacking added RNase activity to enzymatically cleave […]), so as to allow detection and quantitation of clone remaining bound to the cell surface, as well as internalized clone (i.e., measuring binding and internalization). Following further washes with phosphate-buffered saline, the cells were fixed in 1% formaldehyde and then subjected to analysis on a flow cytometer using commercially available analysis software. In performing analyses by flow cytometry, several assay controls were used. As an assay control representing either no or background (e.g., non-specific) internalization, an RNA molecule resulting from a selection process for binding a molecule not detectably expressed on target cells was used. The assay control RNA molecule was further modified with Alexa 647, and then used for further characterization of clones from the selection process described herein. For ease of description and reference for this Example, this assay control RNA molecule is referred to herein as Negative Control 1 (see, e.g., Table 5). As an additional assay control that represents either no or background internalization, used was an RNA molecule from the starting library which was chosen from the library prior to beginning a selection method described herein, and that was further modified with Alexa 647. This assay control RNA molecule is referred to herein as Negative Control 2 (see, e.g., Tables 5, 7, and 8). Additionally, fluorescence of unstained cells was measured, as a control, to quantitate any background fluorescent properties of the cells themselves as encountered in analyses by flow cytometry (“Unstained”), as opposed to fluorescent signal mediated by the RNA molecules further modified to include Alexa 647. Shown in Table 5 are the results of analyses by flow cytometry in which measured and quantitated was the ability of clones, selected on the basis of sequence convergence, to internalize into target cells represented by human prostate cancer cell line PC-3. The units of fluorescence in Table 5 represent mean fluorescence (“Mean”). The fold increase (determined by dividing the mean fluorescence of a clone by the mean fluorescence of unstained cells) is an indicator of the ability of a clone, or a clone which has been further modified to include an effector moiety, to internalize into the target cells (Table 5; “Fold Increase”).
The truncations, illustrated in Table 6, were each further modified with a detectable moiety, Alexa 647, and analyzed by a flow cytometric-based screening assay for internalization using the methods outlined in Example 2, to determine minimal sequences that maintain the full ability to internalize into human prostate cancer cells. Shown in Table 7 are the results of analyses by flow cytometry in which measured and quantitated was the ability of each truncation to internalize into target cells represented by human prostate cancer cell line PC-3. The units of fluorescence in Table 7 represent mean fluorescence intensity (“Mean”). […]

[3] = test system: LNCaP lymph node metastatic lesion of human prostate adenocarcinoma; assay: Flow cytometric binding and internalization assay, LNCaP; assay type: cell-based; conditions: malignant
Experimental: as §1

[4] = test system: A431 human epidermoid carcinoma; assay: Flow cytometric binding and internalization assay, A431; assay type: cell-based; conditions: A431, malignant
Experimental: as §1

[5] = test system: DU145 human prostate cancer, metastatic; assay: Flow cytometric binding and internalization assay, DU145; assay type: cell-based; conditions: DU145, malignant
Experimental: as §1

[6] = test system: T47D human ductal breast epithelial tumor cell line; assay: Flow cytometric binding and internalization assay, T47D; assay type: cell-based; conditions: malignant
Experimental: as §1

[7] = test system: A549 human lung adenocarcinoma; assay: Flow cytometric binding and internalization assay, A549; assay type: cell-based; conditions: A549, malignant
Experimental: as §1

[8] = test system: SKBR3 human breast adenocarcinoma; assay: Flow cytometric binding and internalization assay, SKBR3; assay type: cell-based; conditions: SKBR3, malignant
Experimental: as §1

[9] = test system: K562 human chronic myelogenous leukemia; assay: Flow cytometric binding and internalization assay, K562; assay type: cell-based; conditions: K562, malignant
Experimental: as §1

[10] = test system: PrEC human primary prostate epithelial cells; assay: Flow cytometric binding and internalization assay, PrEC; assay type: cell-based; conditions: nonmalignant
Experimental: as §1

[11] = test system: WIL-2 B lymphoblastoid cell line transformed with Epstein Barr virus; assay: Flow cytometric binding and internalization assay, WIL-2; assay type: cell-based, human; conditions: WIL-2, transformed cells
Experimental: as §1

[12] = test system: HS578T Human, triple negative, highly metastatic breast carcinoma; assay: Flow cytometric binding and internalization assay, HS578T; assay type: cell-based; conditions: malignant
Experimental: as §1

[13] = test system: HCC1937 human, triple negative, primary breast carcinoma; assay: Flow cytometric binding and internalization assay, HCC1937; assay type: cell-based; conditions: HCC1937, malignant
Experimental: as §1

[14] = test system: 22Rv1 Human prostate xenografts in mice; assay: Flow cytometric binding and internalization assay, 22Rv1; assay type: cell-based; conditions: 22Rv1, malignant
Experimental: as §1

[15] = test system: PBMC (unstim) human, unstimulated peripheral blood mononuclear cells; assay: Flow cytometric binding and internalization assay, PBMC; assay type: cell-based; conditions: nonmalignant
Experimental: as §1

[16] = test system: HCC1143 human, triple negative, breast carcinoma; assay: Flow cytometric binding and internalization assay, HCC1143; assay type: cell-based; conditions: HCC1143, malignant
Experimental: as §1

[17] = test system: human primary mammary epithelial cells; assay: Flow cytometric binding and internalization assay, mammary epithelial cells; assay type: cell-based; conditions: nonmalignant
Experimental: as §1

[18] = Table 7, truncations modified with Alexa 647, PC-3

B1: GGGAGGACGAUGCGGUACUUUCGGGCUUUCGGCAACAUCAGCCCCUCAGGACGCAAUUUCUCCUACUGGGAUAGGUGGAUUAU (nucleic acid)
chain: rGrGrGrArGrGrAfCrGrAfUrGfCrGrGfUrAfCfUfUfUfCrGrGrGfCfUfUfUfCrGrGfCrArAfCrAfUfCrArGfCfCfCfCfUfCrArGrGrAfCrGfCrArAfUfUfUfCfUfCfCfUrAfCfUrGrGrGrAfUrArGrGfUrGrGrAfUfUrAfU
modifications: Alexa 647 label via hybridized DNA oligo, further chemistry not fully specified
notes: tested hybridized to Alexa647 DNA oligo
Fold increase [1]: 31.0
internalization into cells (conclusion from Table 5) ([2]; PC-3, in words): mediate internalization into cells
Fold Increase (mean fluorescence of clone / unstained cells) ([2]; Table 5, 200 nM Alexa 647-modified clone, 2 hours @ 37° C., PC-3): 8.3
Mean (mean fluorescence) ([2]; Table 5, 200 nM Alexa 647-modified clone, 2 hours @ 37° C., flow cytometry, PC-3): 665
Fold increase (mean fluorescence intensity / unstained cells) [2, 18]: 11.3
Mean (mean fluorescence intensity) [2, 18]: 907
Fold increase ([2]; Table 9, PC3, malignant): 9.4
Fold increase [3]: 6.1
Fold increase [4]: 6.9
Fold increase [5]: 6.1
Fold increase [6]: 25.8
Fold increase [7]: 3.7
Fold increase [8]: 14.3
Fold increase [9]: 23.2
Fold increase [10]: 2.6
Fold increase [11]: 20.6
Fold increase [12]: 9.8
Fold increase [13]: 11.8
Fold increase [14]: 14.8
Fold increase [15]: 2.4
Fold increase [16]: 2.1
Fold increase [17]: 5.7
